Data published in IntAct's records for PubMed 21247419.

B1: Dexamethasone-induced Ras-related protein 1 (Mus musculus), O35626 (parent)
chain: MKLAAMIKKMCPSDSELSIPAKNCYRMVILGSSKVGKTAIVSRFLTGRFEDAYTPTIEDFHRKFYSIRGEVYQLDILDTSGNHPFPAMRRLSILTGDVFILVFSLDNRDSFEEVQRLKQQILDTKSCLKNKTKENVDVPLVICGNKGDRDFYREVEQREIEQLVGDDPQRCAYFEISAKKNSSLDQMFRALFAMAKLPSEMSPDLHRKVSVQYCDVLHKKALRNKKLLRAGSGGGGDHGDAFGILAPFARRPSVHSDLMYIREKTSVGSQAKDKERCVIS
partner: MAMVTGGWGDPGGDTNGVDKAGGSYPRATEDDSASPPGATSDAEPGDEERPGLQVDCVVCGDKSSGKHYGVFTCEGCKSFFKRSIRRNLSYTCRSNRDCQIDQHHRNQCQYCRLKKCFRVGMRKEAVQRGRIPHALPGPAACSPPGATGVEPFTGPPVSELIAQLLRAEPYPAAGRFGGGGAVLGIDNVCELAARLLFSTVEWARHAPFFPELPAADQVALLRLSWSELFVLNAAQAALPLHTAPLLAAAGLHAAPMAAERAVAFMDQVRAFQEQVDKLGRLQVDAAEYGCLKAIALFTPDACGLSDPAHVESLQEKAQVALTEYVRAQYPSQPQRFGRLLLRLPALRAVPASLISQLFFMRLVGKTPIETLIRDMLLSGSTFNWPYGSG

Variants of: B1
Conditions: with nr2f6_mouse Nr2f6, P43136

| effect of a mutation on the interaction | Variant |
| --- | --- |
| decreasing interaction | K34N |
| decreasing interaction | G81A |
